Measured values taken from article PMC5027511.

Biological target: E. coli RNAP core with βG1249D (α2, His6-tagged βG1249D, β’, ω) (E. coli) (UniProt P0A7Z4)
Assay: cross-linking; photo-crosslinking from BpA at σ 581; σD581BpA incubated with or without AsiA 10 min at 37°C, then with core 10 min at 37°C; UV 30 min at room temperature; SDS-PAGE with Coomassie stain; crosslinked band digested with trypsin and read by MALDI-TOF; the species was seen only with AsiA present

fold less of the σD581BpA-β’ crosslinked product than with wt core: 4 fold
Substance: AsiA/σD581BpA complex (from UniProt P00579 1-613; P32267 1-90)
